How the values were obtained:
ScuR/SarF system = assay: cell-based or functional assay
[1] = target: ScuR-StrepTag (Streptococcus salivarius HSISS4); assay: EMSA: Cy3 PsptA probe, constant ScuR-StrepTag, decreasing sBI7; peptide-dependent ternary complex

For LPFWLILG [sBI7], the peptide concentration to which the PsptA, PslvX and PcomS luxAB reporters respond in WT background (ScuR/SarF system) was less than 1 nM and the lowest peptide concentration at which ScuR shifts the PsptA probe [1] was 0.08 nM.
